Here are results for one protein from FireProtDB (doi:10.1016/0022-2836(92)90907-2).

The conditions of this series: Bacillus amyloliquefaciens; pH 6.3; 25 °C; Urea; Fluorescence; MES 450 mM; reversible: yes; whole UniProt chain shown.

B1: Ribonuclease wild type, P00648 (protein)
chain: MMKMEGIALKKRLSWISVCLLVLVSAAGMLFSTAAKTETSSHKAHTEAQVINTFDGVADYLQTYHKLPDNYITKSEAQALGWVASKGNLADVAPGKSIGGDIFSNREGKLPGKSGRTWREADINYTSGFRNSDRILYSSDWLIYKTTDHYQTFTKIR
Turning to B1, the denaturant m value was found to be 1.92 kcal/mol/M, the “denaturant midpoint (higher = more stable)” value was found to be 4.6 M and the unfolding free energy was found to be 8.83 kcal/mol.
